According to US11357817B2, “Immunoproteasome inhibitor” (The Regents of the University of California, priority 2017, dated 2022):

Key:
[1] = target: Succinyl-Leu-Leu-Val-Tyr-aminocoumarin (Artificial Sequence)
[2] = target: 20S Plasmodium proteasome (Pf20S), enriched from P. falciparum schizont lysate (Plasmodium falciparum)
[3] = target: human constitutive 20S proteasome (human)
[4] = target: β5 subunit of the S. cerevisiae 20S proteasome (PRE2) with M45I (M120I in the pro-protein), lineage 2 (Saccharomyces cerevisiae)
[5] = target: β5 subunit of the S. cerevisiae 20S proteasome (PRE2), wild type (Saccharomyces cerevisiae)
[6] = target: human constitutive 20S proteasome (human); assay: inactivation kinetics of c20S, Suc-LLVY-AMC activity assay, non-linear regression of Kobs
[7] = target: 20S Plasmodium proteasome (Pf20S), enriched from P. falciparum schizont lysate (Plasmodium falciparum); remark: listed apart in the source
[8] = target: human constitutive 20S proteasome (human); remark: listed apart in the source
[9] = target: 20S Plasmodium proteasome (Pf20S), enriched from P. falciparum schizont lysate (Plasmodium falciparum); assay: inactivation kinetics of Pf20S, Suc-LLVY-AMC activity assay, non-linear regression of Kobs
[10] = test system: 20S Plasmodium proteasome (Pf20S) β1 subunit; assay: Proteasome activity assay, Pf20S β1 (z-LLE-AMC); format: biochemical, Plasmodium falciparum; details: 150 nM inhibitor
Protocol: (§1) Asynchronous P. falciparum cultures were grown up to 4-5% parasitemia, in 300 mL of RPMI media at 5.0% hematocrit. […] The PBS was removed and lysis buffer (0.15% saponin in PBS) was added on ice in 10 pellet volumes. Upon lysis of red blood cells, indicated by a clear red supernatant, the lysed cultures were centrifuged at 3200×g for 12 minutes at 4° C. The supernatant was removed by aspiration and the cells were washed twice using chilled PBS in microcentrifuge tubes. The cell pellets were then incubated on ice for 1 hour with occasional vortexing in a buffer consisting of 20 mM Tris-HCl pH 7.5, 5 mM MgCl2, 1 mM DTT, 100 μM E-64 and 1 mM AEBSF. This sample was then subjected to 3 rounds of freezing (−80° C.) and thawing (37° C.) and centrifugation at 6000×g for 10 min. The supernatant containing soluble P. falciparum protein was quantified by the BCA method (Pierce).
(§2) P. falciparum proteasome was enriched by two-chromatographic steps reported previously (10). […] The AMC fluorophore release was monitored at Ex 340/Em 465 nm at 24° C. using a Synergy HTX multi-mode reader (Biotek). […] Proteins were eluted using 20 mM Tris-HCl pH 7.5, 100 mM NaCl, 10% glycerol and 1 mL fractions were collected, evaluated for protease activity and pooled. […]

[11] = test system: 20S Plasmodium proteasome (Pf20S) β5 subunit; assay: Proteasome activity assay, Pf20S β5 (suc-LLVY-AMC); format: biochemical, Plasmodium falciparum; details: 150 nM inhibitor
Protocol: Asynchronous P. falciparum cultures were grown up to 4-5% parasitemia, in 300 mL of RPMI media at 5.0% hematocrit. Cultures were then transferred to 50 mL conical tubes, pelleted via centrifugation at 800 g for 5 min, and washed once with 1×PBS and pelleted again as above. The PBS was removed and lysis buffer (0.15% saponin in PBS) was added on ice in 10 pellet volumes. Upon lysis of red blood cells, indicated by a clear red supernatant, the lysed cultures were centrifuged at 3200×g for 12 minutes at 4° C. The supernatant was removed by aspiration and the cells were washed twice using chilled PBS in microcentrifuge tubes. The cell pellets were then incubated on ice for 1 hour with occasional vortexing in a buffer consisting of 20 mM Tris-HCl pH 7.5, 5 mM MgCl2, 1 mM DTT, 100 μM E-64 and 1 mM AEBSF. This sample was then subjected to 3 rounds of freezing (−80° C.) and thawing (37° C.) and centrifugation at 6000×g for 10 min. The supernatant containing soluble P. falciparum protein was quantified by the BCA method (Pierce).
P. falciparum proteasome was enriched by two-chromatographic steps reported previously (10). In brief, 10 mg of P. falciparum protein was concentrated to 1 mL using a 100 kDa centrifugal filter unit (Amicon) and loaded onto a 5 mL anion exchange HiTrap DEAE FF column (GE Healthcare). […] The AMC fluorophore release was monitored at Ex 340/Em 465 nm at 24° C. using a Synergy HTX multi-mode reader (Biotek). […] Proteins were eluted using 20 mM Tris-HCl pH 7.5, 100 mM NaCl, 10% glycerol and 1 mL fractions were collected, evaluated for protease activity and pooled.
To estimate the concentration of Pf20S in the final pooled sample, protein was denatured and loaded into a 4-12% Bis-Tris Plus gel (Thermo Fisher Scientific) beside 60 to 100 ng of human constitutive proteasome (Boston Biochem). […] For inhibition assays, inhibitor and substrate were added simultaneously to the enzyme and the rate of AMC release was determined from 60 to 120 minutes and compared to a DMSO control.

Pf20S = Pf20S (Plasmodium falciparum, UniProt A0A5K1K7U1+Q8IJT1); assay: Calculation of inhibition constants (inactivation kinetics), Pf20S; format: biochemical; details: Pf20S
Protocol: (§3) The rate of AMC release was calculated in the presence of serial dilution of each inhibitor. The rate of product formation were calculated at 30 min intervals for 4 hours, and normalized to activity DMSO control to calculate inactivation curves. Kobs values for each inhibitor concentration were calculated from inactivation curves, and inhibition constants KI and kinact were calculated by non-linear regression of Kobs and inhibitor concentration using GraphPad Prism 6 software.

c20S = target: T1, c20S (Homo sapiens, UniProt P20618+P28074); assay: Calculation of inhibition constants (inactivation kinetics), c20S; format: biochemical; details: c20S
T1 construct: purchased Boston Biochem
Protocol: as §3

[12] = test system: ABC16-Monster yeast cells; assay: microbe, parasite or virus in culture; format: cell-based, S. cerevisiae; details: Saccharomyces cerevisiae
Protocol: ABC16-Monster yeast cells (15) were inoculated into 5 ml of liquid YPD media and grown to saturation (OD600>1.0) overnight at 200 RPM in a shaking incubator at 30° C. Cultures were diluted to OD600 0.005 to log phase. 100 μl of yeast cells were added to a 96-well plate and incubated with compound starting with a concentration of 150 μM, followed by 1:2 serial dilutions. An initial reading of OD600 (t=0 hrs) was recorded using a Synergy HT spectrophotometer, and cells were grown for a period of 18 hours at 30° C. After incubation, plates were read at OD600. Cells grown in the absence of compound were used as a negative control. Percent growth was calculated using the formula Ab600treated/Ab600control×100
IC50 values were determined by first subtracting the OD600 values at t=0 from those of the final reading and then using Graphpad Prism to calculate nonlinear regression on log(inhibitor) vs. response with variable slope (four parameters).
Each selection was cultured under vigorous shaking until the culture reached saturation. […] Single colonies were isolated, and IC50 assays were performed to determine the degree of evolved resistance vs. that of the parental strain.

[13] = test system: 20S Plasmodium proteasome (Pf20S) β2 subunit; assay: Proteasome activity assay, Pf20S β2 (z-LRR-AMC); format: biochemical; details: 150 nM inhibitor
Protocol: as §1, §2

Dd2 parasites = assay: Artemisinin synergy, 72 hour SYBR green assay with co-treatment; format: cell-based, Plasmodium falciparum
Protocol: Compound susceptibility was measured using the malaria SYBR Green I-based fluorescence assay (32). Asynchronous P. falciparum parasites (Dd2 strain) were cultured in standard conditions before being plated for the assays. Each compound was tested over 72 hours in technical duplicates on a twelve-point concentration curve prepared by three-fold dilution from 6.7 μM to 0.11 nM. At least three independent experiments were carried out for IC50 determination. Artemisinin and chloroquine were used as controls. IC50 values were obtained using normalized fluorescence intensity from SYBR green I and analyzed via non-linear variable slope four-parameter regression curve-fitting model in Prism 6 (GraphPad Software Inc).

With “20S Plasmodium proteasome (Pf20S), enriched from P. falciparum schizont lysate (enzyme)” as the compound, how does the hydrolysis of z-LRR-AMC (AMC release) (fold of the c20S rate) (z-LRR-AMC) read?
Its hydrolysis of z-LRR-AMC (AMC release) (fold of the c20S rate) is < 2.

And the hydrolysis of suc-LLVY-AMC (AMC release) (fold of the c20S rate) [1]?
The hydrolysis of suc-LLVY-AMC (AMC release) (fold of the c20S rate) was < 2.

And the hydrolysis of z-LLE-AMC (AMC release) (fold lower than c20S) (z-LLE-AMC)?
Its hydrolysis of z-LLE-AMC (AMC release) (fold lower than c20S) is 19.

How did the Kinact [2] turn out when Carmaphycin B (peptide) was run?
The Kinact was 0.000192 s⁻¹.

What about the Kinact/KI [2] of the same compound?
Its Kinact/KI is 864 M⁻¹ s⁻¹.

What about the Kinact [3] of the same compound?
The Kinact was 0.00168 s⁻¹.

And the Kinact/KI [3]?
The Kinact/KI was 4480 M⁻¹ s⁻¹.

And the average IC50 (uM) of yeast growth, resistant lineage 2 [4]?
Its average IC50 (uM) of yeast growth, resistant lineage 2 is 52.7 µM.

And the average IC50 (uM) of yeast growth, parental GM strain [5]?
Its average IC50 (uM) of yeast growth, parental GM strain is 24.3 µM.

What about the Ki [6] of the same compound?
The Ki was 0.375 µM.

What about the inhibition of β5, β1 and β2 activity at 150 nM inhibitor (% reduction of β5 activity) [7] of the same compound?
The inhibition of β5, β1 and β2 activity at 150 nM inhibitor (% reduction of β5 activity) was 45.

And the inhibition of β5, β1 and β2 activity at 150 nM inhibitor (% inhibition of β5 activity) [8]?
Its inhibition of β5, β1 and β2 activity at 150 nM inhibitor (% inhibition of β5 activity) is 98.

And the Ki [9]?
The Ki was 0.223 µM.

For `CCCCCC(=O)N[C@H](C(=O)N[C@@H](CCS(C)(=O)=O)C(=O)N[C@@H](CC(C)C)C(=O)[C@@]1(C)CO1)C(C)C` [Carmaphycin B], which “Pf20S β1 activity reduced” value [10] is on record?
The value was 16%.

What about the “Pf20S β5 activity reduced” value [11] of the same compound?
The value was 45%.

What about the Ki (Pf20S) of the same compound?
Its Ki is 0.223 µM.

And the Ki (c20S)?
Its Ki is 0.375 µM.

And the IC50 ([12]; GM (parental ABC16-Monster strain))?
Its IC50 is 24.3 µM.

What about the IC50 ([12]; resistant Lineage 1) of the same compound?
The IC50 was > 150 µM.

And the IC50 ([12]; resistant Lineage 2)?
Its IC50 is 52.7 µM.

What about the IC50 ([12]; resistant Lineage 3) of the same compound?
Its IC50 is > 100 µM.

What about the “Pf20S β2 activity reduced” value [13] of the same compound?
The value was 29%.

And the “sensitization to ART” value (Dd2 parasites; co-treatment with ART and 0.5 nM of the compound)?
Its value is 2 fold.

What about the “sensitization to ART” value (Dd2 parasites; co-treatment with ART and 1 nM of the compound) of the same compound?
The value was 3 fold.
